Laboratory results taken from US12246067.

Legend:
HLA-A02.01 (human) [1] = experiment: peptide-HLA class I complex stability, method not described; conditions: remark: other sources report otherwise
HLA-A02.01 (human) [2] = experiment: peptide-HLA class I affinity, method not described; conditions: remark: other sources report otherwise

## LVVVGADGV [KRAS, G12D peptide …]
HLA-A02.01 (human) [1]
  Measured stability: 0 h
HLA-A02.01 (human) [2]
  Measured Affinity: 977 nM

## LVVVGAVGV [KRAS, G12V peptide …]
HLA-A02.01 (human) [1]
  Measured stability: 0.6 h
HLA-A02.01 (human) [2]
  Measured Affinity: 682 nM

## LVVVGACGV [KRAS, G12C peptide …]
HLA-A02.01 (human) [1]
  Measured stability: 0.6 h
HLA-A02.01 (human) [2]
  Measured Affinity: 667 nM
